From patent publication US12576138B2, “Compounds and methods for the immobilization of myostatin-inhibitors on the extracellular matrix by transglutaminase” (JULIUS-MAXIMILIANS-UNIVERSITÄT WÜRZBURG, priority 2018, dated 2026)

Columns and labels:
fibronectin = target: T1, fibronectin (Mus musculus, UniProt P11276); assay: FXIIIa-mediated immobilization of MI-D chain on decellularized cell-derived ECM; assay type: biochemical
T1 construct: The ECM was produced by NIH3T3 fibroblasts and on day 6 decellularized; endogenous in cells; host or cells: NIH3T3 fibroblasts (decellularized ECM)
T1 sequence (P11276 33-2477): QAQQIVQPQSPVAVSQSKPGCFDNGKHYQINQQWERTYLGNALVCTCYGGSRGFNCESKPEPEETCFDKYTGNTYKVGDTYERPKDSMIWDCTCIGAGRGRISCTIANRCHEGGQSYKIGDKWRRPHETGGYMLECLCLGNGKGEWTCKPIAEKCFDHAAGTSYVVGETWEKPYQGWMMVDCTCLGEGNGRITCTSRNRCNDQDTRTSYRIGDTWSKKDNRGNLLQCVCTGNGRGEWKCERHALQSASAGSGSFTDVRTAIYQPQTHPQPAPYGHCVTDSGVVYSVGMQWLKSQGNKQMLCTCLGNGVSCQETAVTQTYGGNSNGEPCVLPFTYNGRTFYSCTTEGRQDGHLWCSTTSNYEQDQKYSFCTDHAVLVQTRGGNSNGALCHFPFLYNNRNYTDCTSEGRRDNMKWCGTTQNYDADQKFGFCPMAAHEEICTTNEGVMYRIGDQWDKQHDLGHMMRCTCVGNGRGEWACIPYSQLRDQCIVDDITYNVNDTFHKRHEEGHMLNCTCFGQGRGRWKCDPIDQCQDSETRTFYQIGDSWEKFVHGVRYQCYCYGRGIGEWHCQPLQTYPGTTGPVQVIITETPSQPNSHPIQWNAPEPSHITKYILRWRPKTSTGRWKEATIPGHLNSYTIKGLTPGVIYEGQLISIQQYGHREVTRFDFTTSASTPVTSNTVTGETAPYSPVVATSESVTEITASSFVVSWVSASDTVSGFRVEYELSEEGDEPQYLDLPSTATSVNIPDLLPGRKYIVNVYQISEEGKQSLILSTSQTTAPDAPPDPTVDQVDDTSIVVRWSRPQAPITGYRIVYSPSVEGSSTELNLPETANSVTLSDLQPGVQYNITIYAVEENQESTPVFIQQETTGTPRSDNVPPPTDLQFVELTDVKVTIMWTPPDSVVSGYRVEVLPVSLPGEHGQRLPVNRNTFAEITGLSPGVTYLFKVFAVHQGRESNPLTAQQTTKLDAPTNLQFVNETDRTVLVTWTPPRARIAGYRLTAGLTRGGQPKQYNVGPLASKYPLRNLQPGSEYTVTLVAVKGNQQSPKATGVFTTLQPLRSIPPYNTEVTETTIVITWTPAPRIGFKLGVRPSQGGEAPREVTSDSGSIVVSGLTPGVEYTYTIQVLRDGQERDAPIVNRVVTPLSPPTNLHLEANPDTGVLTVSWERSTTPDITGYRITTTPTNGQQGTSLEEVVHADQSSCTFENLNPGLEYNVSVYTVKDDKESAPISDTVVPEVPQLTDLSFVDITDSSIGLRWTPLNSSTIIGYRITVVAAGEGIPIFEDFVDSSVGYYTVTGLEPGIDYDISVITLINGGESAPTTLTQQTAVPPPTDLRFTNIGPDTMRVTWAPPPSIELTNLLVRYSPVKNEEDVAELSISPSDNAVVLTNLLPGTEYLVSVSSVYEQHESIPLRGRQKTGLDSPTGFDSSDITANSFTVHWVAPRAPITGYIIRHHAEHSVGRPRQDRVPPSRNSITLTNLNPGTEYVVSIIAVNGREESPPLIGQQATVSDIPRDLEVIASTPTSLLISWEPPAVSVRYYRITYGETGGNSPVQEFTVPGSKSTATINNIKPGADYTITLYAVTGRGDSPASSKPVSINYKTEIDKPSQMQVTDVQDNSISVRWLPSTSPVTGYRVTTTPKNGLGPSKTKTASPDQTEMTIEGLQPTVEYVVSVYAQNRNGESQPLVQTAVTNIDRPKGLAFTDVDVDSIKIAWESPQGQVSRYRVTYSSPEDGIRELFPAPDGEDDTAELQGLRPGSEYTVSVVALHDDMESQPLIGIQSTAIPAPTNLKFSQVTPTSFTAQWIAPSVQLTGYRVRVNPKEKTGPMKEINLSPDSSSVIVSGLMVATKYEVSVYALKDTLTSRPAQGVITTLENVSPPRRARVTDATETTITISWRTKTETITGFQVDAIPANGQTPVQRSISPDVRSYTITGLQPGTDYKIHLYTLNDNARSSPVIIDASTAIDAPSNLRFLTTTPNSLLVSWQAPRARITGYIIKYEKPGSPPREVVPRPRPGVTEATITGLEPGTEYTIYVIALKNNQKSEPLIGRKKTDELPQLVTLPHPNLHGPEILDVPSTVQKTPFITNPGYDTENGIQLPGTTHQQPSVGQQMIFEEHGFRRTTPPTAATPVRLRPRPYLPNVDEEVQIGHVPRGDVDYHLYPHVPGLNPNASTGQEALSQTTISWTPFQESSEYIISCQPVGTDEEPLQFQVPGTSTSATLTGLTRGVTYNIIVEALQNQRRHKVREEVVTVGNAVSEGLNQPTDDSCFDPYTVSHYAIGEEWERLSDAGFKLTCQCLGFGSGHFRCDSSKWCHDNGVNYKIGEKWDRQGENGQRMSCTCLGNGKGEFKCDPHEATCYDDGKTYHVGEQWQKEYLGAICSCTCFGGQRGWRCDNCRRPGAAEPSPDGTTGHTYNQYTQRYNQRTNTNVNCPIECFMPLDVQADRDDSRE
Source text: As proof of concept, the MI with TG tag (“MI-D chain”) was immobilized onto cell derived, isolated extracellular matrix (ECM). The ECM was produced by NIH3T3 fibroblasts and on day 6 decellularized and washed to remove cell debris and adsorbed proteins.
(§1) MI-D chains were immobilized on ECM with high efficacy (FIG. 4A) and the co-localization with fibronectin confirmed using confocal laser scanning microscopy (FIG. 4B). Bioactivity of immobilized MI was confirmed by capturing myostatin using ELISA and consequently the restoration of mouse myoblast cells to differentiate in presence of myostatin (FIG. 4C, D).
(§2) FIG. 4: Immobilization of the MI-D chain on decellularized ECM. (A) Coupling efficacy in presence and absence of TG. (B) Confocal Laser Scanning Microscopy images of MI labeled with Atto594-maleimide on ECM in presence (panels A) and absence (panels B) of FXIIIa. […] (C) Amount of free myostatin after exposure to ECM with immobilized MI under different conditions measured by ELISA. (D) Bioactivity of MI immobilized on ECM determined by differentiation of myoblasts in presence of myostatin-containing medium and MI bound on ECM in presence or absence of TG.

myostatin [1] = target: T2, myostatin (Homo sapiens, UniProt O14793); assay: Capture of myostatin by ECM-immobilized MI, measured by ELISA; assay type: binding
T2 sequence (O14793 267-375): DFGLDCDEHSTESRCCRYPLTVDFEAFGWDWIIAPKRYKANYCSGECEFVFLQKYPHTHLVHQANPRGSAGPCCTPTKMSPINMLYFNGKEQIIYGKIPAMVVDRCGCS
Source text: as §1, §2

mouse myoblast cells = assay: Differentiation of myoblasts in presence of myostatin and MI bound on ECM; assay type: cell-based; conditions: MI immobilized on ECM
Source text: as §1, §2

[2] = target: glutamine substrate derived from α-2 plasmin inhibitor (Homo sapiens, UniProt P08697); assay: Transglutaminase coupling of the isolated IGF-I D chain to a glutamine substrate; assay type: biochemical
Method: Starting off by examination of the specificity and efficacy of the IGF-I D chain, the isolated sequence (PLKPAKSA) was coupled to a glutamine substrate derived from α-2 plasmin inhibitor, achieving >90% conversion within less than 10 minutes.

myostatin [3] = target: T2, myostatin; assay: Bioactivity of released MI: myoblast proliferation in presence of myostatin; assay type: cell-based; conditions: after release from ECM triggered by MMPs
Source text: If a flaring inflammation in the wounded tissue occurs, accompanied by invasion of macrophages and release of MMPs, the inter-positioned PCL is cleaved, releasing the MI and instantly inhibiting the flaring inflammation and preventing apoptosis of surrounding cartilage and muscle cells.
FIG. 5: (A) Release kinetics of MI modified with a PCL—responding to elevated MMP levels—and the D chain for immobilization on ECM (“MI1”) in comparison to MI modified with the D chain at the C-terminus for direct immobilization on ECM (“MI2”). The MI was labelled with a fluorescent dye before immobilization on the ECM and the release of MI exposed to MMP-1, -8, -9 and -13 for different periods of time was analyzed by HPLC with fluorescence detection. (B) Bioactivity of released MI determined by myoblast proliferation in presence of myostatin and MI after release from ECM triggered by MMPs.

Substance: MI-D chain: myostatin inhibitor with the IGF-I D chain attached at the C-terminus for direct immobilization on ECM (VATQGQCTRWPWMCPPQGWGPLKPAKSA)
- co-localization with fibronectin (fibronectin; confocal laser scanning microscopy): confirmed
- efficacy of immobilization on ECM (fibronectin; decellularized ECM from NIH3T3 fibroblasts, FXIIIa): high efficacy
- bioactivity of immobilized MI by capturing myostatin (myostatin [1]; ELISA, MI immobilized on ECM): confirmed
- capacity to bind and inhibit myostatin after immobilization on N-terminus of fibronectin (myostatin [1]; immobilized on ECM): without impairment
- differentiation of mouse myoblast cells in presence of myostatin (mouse myoblast cells): restoration

Substance: PLKPAKSA (listed as Homo sapiens) [IGF-I D chain]
- time to reach >90% conversion ([2]; coupling to glutamine substrate derived from α-2 plasmin inhibitor): less than 10 minutes
- conversion (coupling to glutamine substrate) ([2]; within less than 10 minutes): > 90%

Substance: VATQGQCTRWPWMCPPQGWG (listed as Homo sapiens) [MI, in b165 the MI released from ECM by MMPs]
- bioactivity of released MI in terms of myostatin inhibition (myostatin [3]): bioactive
